Experimental data from US20120315284A1 (KOREA RESEARCH INSTITUTE OF BIOSCIENCE AND BIOTECH, published 2012).

T1: MKK7 in cell lysate (immunoprecipitated with MKK7 antibody; the cells' own MKK7) (human, UniProt O14733 2-419, limits assumed)
T1 sequence: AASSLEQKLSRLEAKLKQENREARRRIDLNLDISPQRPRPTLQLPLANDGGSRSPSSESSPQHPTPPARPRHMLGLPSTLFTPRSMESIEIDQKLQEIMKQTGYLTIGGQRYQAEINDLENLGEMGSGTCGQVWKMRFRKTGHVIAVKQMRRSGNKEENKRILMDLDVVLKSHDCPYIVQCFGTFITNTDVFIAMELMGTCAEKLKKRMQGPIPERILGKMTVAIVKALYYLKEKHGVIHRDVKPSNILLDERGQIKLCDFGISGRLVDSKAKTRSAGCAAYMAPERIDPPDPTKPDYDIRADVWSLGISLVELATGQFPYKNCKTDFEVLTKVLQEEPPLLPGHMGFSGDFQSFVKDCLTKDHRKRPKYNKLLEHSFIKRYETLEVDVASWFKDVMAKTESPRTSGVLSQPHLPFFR

T2: MKK7 fragment D1 (pGST vector, HEK293T) (human, UniProt O14733 85-419, limits assumed)
T2 construct: also called MKK7-D1; not shown: GST tag of the pGST expression vector
T2 sequence: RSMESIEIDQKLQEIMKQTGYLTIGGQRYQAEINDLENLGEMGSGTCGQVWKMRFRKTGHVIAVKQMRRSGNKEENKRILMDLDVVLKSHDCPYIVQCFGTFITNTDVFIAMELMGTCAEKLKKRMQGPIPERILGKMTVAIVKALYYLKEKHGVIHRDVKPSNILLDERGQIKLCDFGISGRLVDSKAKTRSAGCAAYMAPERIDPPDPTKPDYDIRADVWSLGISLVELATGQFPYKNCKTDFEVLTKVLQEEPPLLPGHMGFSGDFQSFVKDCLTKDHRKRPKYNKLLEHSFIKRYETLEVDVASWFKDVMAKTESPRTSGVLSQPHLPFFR

T3: MKK7 (full length MKK7 expressed from the pGST vector in HEK293T cells) (human, UniProt O14733 1-419)
T3 construct: also called full length MKK protein; not shown: GST tag of the pGST (pEBG) vector
T3 sequence: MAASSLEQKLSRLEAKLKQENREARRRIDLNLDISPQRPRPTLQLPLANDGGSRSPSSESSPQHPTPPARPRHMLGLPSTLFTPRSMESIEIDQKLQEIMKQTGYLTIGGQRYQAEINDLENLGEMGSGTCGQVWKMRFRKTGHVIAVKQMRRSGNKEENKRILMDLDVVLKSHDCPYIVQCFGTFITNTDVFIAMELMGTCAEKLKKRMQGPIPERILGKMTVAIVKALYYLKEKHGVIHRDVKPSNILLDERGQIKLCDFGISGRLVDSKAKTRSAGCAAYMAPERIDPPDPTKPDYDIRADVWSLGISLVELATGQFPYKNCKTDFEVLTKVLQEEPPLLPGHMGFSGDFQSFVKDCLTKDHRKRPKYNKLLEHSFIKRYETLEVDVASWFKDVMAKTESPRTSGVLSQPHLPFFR

B1: TIP41 in cell lysate (immunoprecipitated with TIP41 antibody; the cells' own TIP41) (other)
chain: MMIHGFQSSHRDFCFGPWKLTASKTHIMKSADVEKLADELHMPSLPEMMFGDNVLRIQHGSGFGIEFNATDALRCVNNYQGMLKVACAEEWQESRTEGEHSKEVIKPYDWTYTTDYKGTLLGESLKLKVVPTTDHIDTEKLKAREQIKFFEEVLLFEDELHDHGVSSLSVKIRVMPSSFFLLLRFFLRIDGVLIRMNDTRLYHEADKTYMLREYTSRESKISSLMHVPPSLFTEPNEISQYLPIKEAVCEKLIFPERIDPNPADSQKSTQVE
notes: also called TIPP41
B2: TIP41 (full length TIP41 protein expressed from the pHA vector in HEK293T cells) (other)
chain: B1 chain
notes: Cloned from liver cancer cell RNA into pHA; also called TIPRL; TOR Signaling Pathway Regulator-Like; not shown: HA tag of the pHA vector (pcDNA3.1 with HA tag)
B3: TIP41 fragment D5 (pHA vector, HEK293T) (other)
chain: MMIHGFQSSHRDFCFGPWKLTASKTHIMKSADVEKLADELHMPSLPEMMFGDNVLRIQHGSGFGIEFNATDALRCVNNYQGMLKVACAEEWQESRTEGEH
notes: also called TIP41-D5; not shown: HA tag of the pHA vector
B4: MKK7 fragment D5 (pGST vector, HEK293T) (other)
chain: AGCAAYMAPERIDPPDPTKPDYDIRADVWSLGISLVELATGQFPYKNCKTDFEVLTKVLQEEPPLLPGHMGFSGDFQSFVKDCLTKDHRKRPKYNKLLEHSFIKRYETLEVDVASWFKDVMAKTESPRTSGVLSQPHLPFFR
notes: also called MKK7-D5; not shown: GST tag of the pGST expression vector
B5: TIP41 fragment D2 (pHA vector, HEK293T) (other)
chain: MMIHGFQSSHRDFCFGPWKLTASKTHIMKSADVEKLADELHMPSLPEMMFGDNVLRIQHGSGFGIEFNATDALRCVNNYQGMLKVACAEEWQESRTEGEHSKEVIKPYDWTYTTDYKGTLLGESLKLKVVPTTDHIDTEKLKAREQIKFFEEVLLFEDELHDHGVSSLSVKIRVMPSSFFLLLRFFLRIDGVLIRMNDTRLYHEADKTYMLREYTSRESKISSLMHVPPS
notes: also called TIP41-D2; not shown: HA tag of the pHA vector
B6: TIP41 fragment D4 (pHA vector, HEK293T) (other)
chain: MLKVACAEEWQESRTEGEHSKEVIKPYDWTYTTDYKGTLLGESLKLKVVPTTDHIDTEKLKAREQIKFFEEVLLFEDELHDHGVSSL
notes: also called TIP41-D4; not shown: HA tag of the pHA vector
B7: TIP41 fragment D1 (pHA vector, HEK293T) (other)
chain: MMIHGFQSSHRDFCFGPWKLTASKTHIMKSADVEKLADELHMPSLPEMMFGDNVLRIQHGSGFGIEFNATDALRCVNNYQGMLKVACAEEWQESRTEGEHSKEVIKPYDWTYTTDYKGTLLGESLKLKVVPTTDHIDTEKLKAREQIKFFEEVLLFEDELHDHGVSSL
notes: also called TIP41-D1; not shown: HA tag of the pHA vector

Tests used:
[1] = target: T1, MKK7 in cell lysate (immunoprecipitated …); experiment: immunoprecipitation (legend of FIG. 11B)
Procedure: In order to identify interaction between TIP41 and MKK7, each antibody was used to perform immunoprecipitation, and binding between TIP41 and MKK7 was identified with Western Blotting. Immunoprecipitation is done by adding about 2 μg antibody of protein to be precipitated into 1 mg cell lysate and reacted for about 2 hours in about 4° C., and add about 30 μl Protein G sepharose bead into each and react for about 12 hours in about 4° C. Afterwards, about 1 ml PBST[0.1% Tween20 included PBS] buffer was added for washing, and the procedure was repeated for about 4 times. Then 100 μl 1× sample buffer (for Western Blotting) was added into the washed bead, and then it was boiled for about 5 minutes in about 95° C. heating block, and was cooled in ice for about 2 minutes. Afterwards, Western Blotting was performed using MKK7 and TIP41 antibody.

[2] = target: T2, MKK7 fragment D1 (pGST vector, HEK293T); experiment: GST pull-down from HEK293T lysate, Western blot
[3] = target: T3, MKK7 (full length MKK7 expressed from …); experiment: GST pull-down from HEK293T lysate, Western blot
[4] = target: B2; experiment: GST pull-down from HEK293T lysate, Western blot

binding result [3] | Binder | also measured
– | B1 | binding result [1]: binds
– | B2 | binding result [2]: no binding
no binding | B3 | –
– | B4 | binding result [4]: no binding
no binding | B5 | –
no binding | B6 | –
no binding | B7 | –
